Measurements: patent publication JP2014043405A (dated 2014)
Positions count from the first letter of the chain named. Blank lines part the entries; values can stand above or below the binder they belong to.

Experiments:
ヒトFcγRIIb [1] = target: T1, ヒトFcγRIIb (human, UniProt P31994 43-217); test: SPR, KD; reference IL6R-BP230/IL6R-L
T1 construct: extracellular domain; for the crystals it was expressed with kifunensine and its N-glycans trimmed with Endo F1; also called FcγRIIb細胞外領域
T1 sequence (looked up): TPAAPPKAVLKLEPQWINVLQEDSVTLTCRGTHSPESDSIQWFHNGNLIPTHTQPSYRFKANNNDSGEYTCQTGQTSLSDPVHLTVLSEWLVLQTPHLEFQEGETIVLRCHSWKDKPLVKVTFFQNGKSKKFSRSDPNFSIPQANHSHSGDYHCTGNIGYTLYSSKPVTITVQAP

ヒトFcγRIIa (R) [2] = target: T2, ヒトFcγRIIa (R) (human, UniProt P12318 34-217); test: SPR, KD; reference IL6R-BP230/IL6R-L
T2 construct: extracellular domain; N-glycans trimmed with Endo F1/F2/F3 for the crystals; also called FcγRIIa R型
T2 sequence (looked up): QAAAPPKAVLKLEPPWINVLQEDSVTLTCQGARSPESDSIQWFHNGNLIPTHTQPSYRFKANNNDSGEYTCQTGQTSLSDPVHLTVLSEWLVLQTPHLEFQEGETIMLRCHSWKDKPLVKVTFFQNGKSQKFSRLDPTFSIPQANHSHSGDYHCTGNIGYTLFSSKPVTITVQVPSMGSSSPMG

ヒトFcγRIIa (R) [3] = target: T2, ヒトFcγRIIa (R); test: SPR, figure legend (Fig. 4)
マウスFcγRIIb [4] = target: T3, マウスFcγRIIb (mouse, UniProt P08101 30-210, limits assumed); test: SPR, Biacore; antibody captured on immobilised human FcRn, FcγR as analyte, pH 7.4, 25C
T3 construct: also called mouse FcγRIIb
T3 sequence (looked up): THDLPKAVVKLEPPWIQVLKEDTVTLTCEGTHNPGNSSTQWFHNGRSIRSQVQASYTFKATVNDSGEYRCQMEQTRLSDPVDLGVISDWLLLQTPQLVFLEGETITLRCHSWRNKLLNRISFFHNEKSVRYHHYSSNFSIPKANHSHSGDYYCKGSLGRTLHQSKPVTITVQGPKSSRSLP

マウスFcγRIII [5] = target: T4, マウスFcγRIII (mouse, UniProt P08508 31-215, limits assumed); test: as above
T4 construct: also called mouse FcγRIII
T4 sequence (looked up): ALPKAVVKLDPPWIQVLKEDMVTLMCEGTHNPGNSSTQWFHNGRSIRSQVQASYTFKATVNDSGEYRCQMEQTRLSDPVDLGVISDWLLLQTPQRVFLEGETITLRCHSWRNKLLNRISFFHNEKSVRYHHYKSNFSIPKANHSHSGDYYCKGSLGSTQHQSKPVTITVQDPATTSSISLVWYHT

マウスFcγRI [6] = target: T5, マウスFcγRI (mouse, UniProt P26151 25-297, limits assumed); test: as above
T5 construct: also called mouse FcγRI
T5 sequence (looked up): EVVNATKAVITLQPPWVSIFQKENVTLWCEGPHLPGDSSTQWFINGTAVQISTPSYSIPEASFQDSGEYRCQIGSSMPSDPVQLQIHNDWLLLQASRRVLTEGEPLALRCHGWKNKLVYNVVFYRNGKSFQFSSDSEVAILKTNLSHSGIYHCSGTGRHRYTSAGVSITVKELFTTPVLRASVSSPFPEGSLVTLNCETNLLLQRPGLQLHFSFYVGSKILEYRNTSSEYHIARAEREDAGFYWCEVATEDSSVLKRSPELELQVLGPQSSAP

ヒトFcγRIIb [7] = target: T1, ヒトFcγRIIb; test: SPR, figure legend (Fig. 6)
ヒトFcγRIIIa (F) = target: T6, ヒトFcγRIIIa (F) (human, UniProt P08637 17-208); test: SPR, figure legend (Fig. 7)
T6 construct: extracellular domain
T6 sequence (P08637 17-208): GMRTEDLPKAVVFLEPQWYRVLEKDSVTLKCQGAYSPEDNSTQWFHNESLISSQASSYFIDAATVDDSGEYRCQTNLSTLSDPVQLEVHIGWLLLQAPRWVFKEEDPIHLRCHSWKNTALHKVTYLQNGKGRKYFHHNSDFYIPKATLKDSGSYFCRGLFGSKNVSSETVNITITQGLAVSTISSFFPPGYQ

ヒトFcγRIa = ヒトFcγRIa (human, UniProt P12314 16-292); test: SPR, figure legend (Fig. 3)
ヒトFcγRIa, sequence (P12314 16-292): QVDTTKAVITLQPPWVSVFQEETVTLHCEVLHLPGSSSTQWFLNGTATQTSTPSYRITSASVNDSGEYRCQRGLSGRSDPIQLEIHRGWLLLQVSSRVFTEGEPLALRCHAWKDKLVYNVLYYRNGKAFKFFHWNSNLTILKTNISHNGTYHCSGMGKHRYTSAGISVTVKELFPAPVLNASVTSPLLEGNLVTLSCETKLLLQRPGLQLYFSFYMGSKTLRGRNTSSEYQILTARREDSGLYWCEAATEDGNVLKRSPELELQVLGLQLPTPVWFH

ヒトFcRn = target: T7, ヒトFcRn (human, UniProt P55899 24-290; P61769 21-119, limits assumed); test: SPR, figure legends of Figs. 3-11
T7 construct: also called human FcRn; complex of human FcRn and human beta-2 microglobulin

ヒトFcγRIIa (H) = target: T8, ヒトFcγRIIa (H) (human, UniProt P12318 34-217); test: SPR, figure legend (Fig. 5)
T8 construct: extracellular domain; also called FcγRIIa H型
T8 sequence (looked up): T2 sequence (looked up) with R134H

マウスFcγRIIb [8] = target: T3, マウスFcγRIIb; test: SPR, Biacore; antibody captured on immobilised mouse FcRn, FcγR as analyte, pH 7.4, 25C
マウスFcγRIII [9] = target: T4, マウスFcγRIII; test: as above
マウスFcγRI [10] = target: T5, マウスFcγRI; test: as above
ヒトFcγRIIb [11] = target: T1, ヒトFcγRIIb; test: SPR, KD; reference IL6R-B3/IL6R-L; the lowest of the named variants
ヒトFcγRIIb [12] = target: T1, ヒトFcγRIIb; test: SPR, KD; reference IL6R-B3/IL6R-L; the highest of the named variants
ヒトFcγRIIb [13] = target: T1, ヒトFcγRIIb; test: SPR; KD for FcγRIIaH divided by KD for FcγRIIb

fold enhancement of binding against IL6R-BP230/IL6R-L (ヒトFcγRIIb [1]): 1.1 fold
binding relative to IL6R-BP230/IL6R-L (ヒトFcγRIIa (R) [2]): 0.9 fold
B1: IL6R-BP478/IL6R-L (antibody)
chain 1: QVQLQESGPGLVKPSETLSLTCAVSGHSISHDHAWSWVRQPPGEGLEWIGFISYSGITNYNPSLQGRVTISRDNSKNTLYLQMNSLRAEDTAVYYCARSLARTTAMDYWGEGTLVTVSSASTKGPSVFPLAPCSRSTSESTAALGCLVKDYFPEPVTVSWNSGALTSGVHTFPAVLQSSGLYSLSSVVTVPSSSLGTKTYTCNVDHKPSNTKVDKRVESKYGPPCPPCPAPDLLGDDSVFLFPPKPKDTLMISRTPEVTCVVVDVSDEDGEVKFNWYVDGVEVHNAKTKPREEQDNSTYRVVSVLTVLHQDWLNGKEYKCKVSNKALPRPIEKTISKAKGQPREPQVYTLPPSRDELTKNQVSLTCLVKGFYPSDIAVEWESNGQPENNYKTTPPVLDSDGSFFLYSKLTVDKSRWQQGNVFSCSVMHEALHNHYTQESLSLSP
chain 2: not shown

binding result (ヒトFcγRIIa (R) [3]): binds
binding result (マウスFcγRIIb [4]): binds
binding result (マウスFcγRIII [5]): binds
binding result (マウスFcγRI [6]): binds
binding result (ヒトFcγRIIb [7]): binds
binding result (ヒトFcγRIIIa (F)): binds
binding result (ヒトFcγRIa): binds
binding result (ヒトFcRn): binds
binding result (ヒトFcγRIIa (H)): binds
B2: Fv4-IgG1-F157 (antibody)
heavy: QVQLQESGPGLVKPSETLSLTCAVSGHSISHDHAWSWVRQPPGEGLEWIGFISYSGITNYNPSLQGRVTISRDNSKNTLYLQMNSLRAEDTAVYYCARSLARTTAMDYWGEGTLVTVSSASTKGPSVFPLAPSSKSTSGGTAALGCLVKDYFPEPVTVSWNSGALTSGVHTFPAVLQSSGLYSLSSVVTVPSSSLGTQTYICNVNHKPSNTKVDKKVEPKSCDKTHTCPPCPAPELLGGPSVFLFPPKPKDTLMISRTAEVTCVVVDVSHEDPEVKFNWYVDGVEVHNAKTKPREEQYNSTYRVVSVLTPLHQDWLNGKEYKCKVSNKALPAPIEKTISKAKGQPREPQVYTLPPSRDELTKNQVSLTCLVKGFYPSDIAVEWESNGQPENNYKTTPPVLDSDGSFFLYSKLTVDKSRWQQGNVFSCSVLHEALHYHYTQKSLSLSP
light: DIQMTQSPSSLSASVGDSVTITCQASTDISSHLNWYQQKPGKAPELLIYYGSHLLSGVPSRFSGSGSGTDFTFTISSLEAEDAATYYCGQGNRLPYTFGQGTKVEIERTVAAPSVFIFPPSDEQLKSGTASVVCLLNNFYPREAKVQWKVDNALQSGNSQESVTEQDSKDSTYSLSSTLTLSKADYEKHKVYACEVTHQGLSSPVTKSFNRGEC
notes: also called VH3-IgG1-F157/VL3-CK

binding result (マウスFcγRIIb [8]): binds
binding result (マウスFcγRIII [9]): binds
binding result (マウスFcγRI [10]): binds
B3: Fv4-IgG1-F20 (antibody)
heavy: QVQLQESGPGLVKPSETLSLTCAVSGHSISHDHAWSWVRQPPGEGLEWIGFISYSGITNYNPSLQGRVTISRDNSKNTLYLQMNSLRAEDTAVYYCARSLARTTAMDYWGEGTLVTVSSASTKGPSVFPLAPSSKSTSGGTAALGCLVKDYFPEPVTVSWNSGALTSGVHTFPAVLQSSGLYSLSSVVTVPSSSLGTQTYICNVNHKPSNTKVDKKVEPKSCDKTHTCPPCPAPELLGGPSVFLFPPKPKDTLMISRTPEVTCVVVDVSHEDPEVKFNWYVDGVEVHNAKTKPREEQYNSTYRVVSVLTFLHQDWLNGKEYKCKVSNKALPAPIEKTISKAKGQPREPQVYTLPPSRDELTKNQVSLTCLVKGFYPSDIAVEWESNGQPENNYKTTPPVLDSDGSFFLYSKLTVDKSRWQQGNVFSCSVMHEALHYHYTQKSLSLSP
light: B2 light
notes: also called VH3-IgG1-F20/VL3-CK

binding result (マウスFcγRIIb [8]): binds
binding result (マウスFcγRIII [9]): binds
binding result (マウスFcγRI [10]): no binding
B4: mPM1-mIgG1-mF3 (antibody)
heavy: DVQLQESGPVLVKPSQSLSLTCTVTGYSITSDHAWSWIRQFPGNKLEWMGYISYSGITTYNPSLKSRISITRDTSKNQFFLQLNSVTTGDTSTYYCARSLARTTAMDYWGQGTSVTVSSAKTTPPSVYPLAPGSAAQTNSMVTLGCLVKGYFPEPVTVTWNSGSLSSGVHTFPAVLQSDLYTLSSSVTVPSSTWPSETVTCNVAHPASSTKVDKKIVPRDCGCKPCICTVPEVSSVFIFPPKPKDVLYITLEPKVTCVVVDISKDDPEVQFSWFVDDVEVHTAQTQPREEQFNSTFRSVSELPIMHQDWLNGKEFKCRVNSAAFPAPIEKTISKTKGRPKAPQVYTIPPPKEQMAKDKVSLTCMITDFFPEDITVEWQWNGQPAENYKNTQPIMDTDGSYFVYSKLNVQKSNWEAGNTFTCSVLHEGLKFHHTEKSLSHSPGK
light: DIQMTQTTSSLSASLGDRVTISCRASQDISSYLNWYQQKPDGTIKLLIYYTSRLHSGVPSRFSGSGSGTDYSLTINNLEQEDIATYFCQQGNTLPYTFGGGTKLEIKRADAAPTVSIFPPSSEQLTSGGASVVCFLNNFYPKDINVKWKIDGSERQNGVLNSWTDQDSKDSTYSMSSTLTLTKDEYERHNSYTCEATHKTSTSPIVKSFNRNEC
notes: mouse IgG1; also called mPM1H-mIgG1-mF3/mPM1L-mk1

fold enhancement of binding, IL6R-B3/IL6R-L = 1 (ヒトFcγRIIb [11]): 321 fold
B5: IL6R-BP495/IL6R-L (antibody)
chain 1: QVQLQESGPGLVKPSETLSLTCAVSGHSISHDHAWSWVRQPPGEGLEWIGFISYSGITNYNPSLQGRVTISRDNSKNTLYLQMNSLRAEDTAVYYCARSLARTTAMDYWGEGTLVTVSSASTKGPSVFPLAPSSKSTSGGTAALGCLVKDYFPEPVTVSWNSGALTSGVHTFPAVLQSSGLYSLSSVVTVPSSSLGTQTYICNVNHKPSNTKVDKKVEPKSCDKTHTCPPCPAPELLGDDSVFLFPPKPKDTLMISRTPEVTCVVVDVGEEDGEVKFNWYVDGVEVHNAKTKPREEQDNSTYRVVSVLTVLHQDWLNGKEYKCKVSNKALPRPIEKTISKAKGQPREPQVYTLPPSRDELTKNQVSLTCLVKGFYPSDIAVEWESNGQPENNYKTTPPVLDSDGSFFLYSKLTVDKSRWQQGNVFSCSVMHEALHNHYTQESLSLSP
chain 2: not shown

fold enhancement of binding, IL6R-B3/IL6R-L = 1 (ヒトFcγRIIb [12]): 3100 fold
B6: IL6R-BP489/IL6R-L (antibody)
chain 1: B5 chain 1 with E235D, V266I, G269A, P398M
chain 2: not shown

KD (IIaH)/KD (IIb) (ヒトFcγRIIb [13]): 8360 ratio
B7: IL6R-BP426/IL6R-L (antibody)
chain 1: B5 chain 1 with E235D, G269A, E271D, D298Y
chain 2: not shown

KD (IIaH)/KD (IIb) (ヒトFcγRIIb [13]): 108 ratio
B8: IL6R-BP480/IL6R-L (antibody)
chain 1: B5 chain 1 with E235D, V268L, G269S, E271D, D298Y, R332A
chain 2: not shown
